# Laboratory results taken from patent US20170081400A1 (CEPHALON, published 2017).
# Where a chain is given by its changes, count along the chain named.
# T1: human TL1A extracellular domain with N-terminal HIS and FLAG tag (human, UniProt O95150 72-251)
# T1 construct: the whole entry is named; also called TNFSF15
# T1 sequence: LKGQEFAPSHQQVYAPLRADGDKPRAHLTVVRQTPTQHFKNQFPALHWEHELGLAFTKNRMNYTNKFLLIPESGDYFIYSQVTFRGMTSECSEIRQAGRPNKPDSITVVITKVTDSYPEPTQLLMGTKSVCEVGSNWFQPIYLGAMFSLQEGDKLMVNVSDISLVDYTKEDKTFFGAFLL
# T2: human TL1A extracellular domain with N-terminal HIS and FLAG tag (human, UniProt O95150 72-251)
# T2 construct: whole entry named. ~70 kDa fraction purified by gel filtration
# T2 sequence: T1 sequence
# B1: 320-581 (antibody, human IgG1, name in Kabat numbering, V domains shown)
# VH: QVQLVQSGAEVKKPGASVKVSCKASGYTFTSYDINWVRQAPGQGLEWMGWLNPNSGNTGLAQKFQGRVTMTADRSTSTAYMELSSLRSEDTAVYYCAREVPETAAFEYWGQGTLVTVSS
# VL: QSVLTQPPSVSGAPGQRVTISCTSSSSDIGAGLGVHWYQQLPGTAPKLLIEGYYNRPSGVPDRFSGSKSGTSASLTITGLLPEDEGDYYCQSYDGTLSALFGGGTKLTVLG
# notes: full-length human IgG1, lambda
# B2: 320-580 (antibody, human IgG1, name in Kabat numbering, V domains shown)
# VH: B1 VH with G56Y, L60Y
# VL: B1 VL
# notes: as for B1
# B3: 320-578 (antibody, human IgG1, name in Kabat numbering, V domains shown)
# VH: B1 VH with L51Y, L60Y
# VL: B1 VL
# notes: as for B1
# B4: 320-572 (antibody, human IgG1, name in Kabat numbering, V domains shown)
# VH: B1 VH with L60Y, A61S
# VL: B1 VL
# notes: as for B1
# B5: 320-565 (antibody, human IgG1, name in Kabat numbering, V domains shown)
# VH: B1 VH with G59Y, L60Y
# VL: B1 VL
# notes: as for B1
# B6: 320-567 (antibody, human IgG1, name in Kabat numbering, V domains shown)
# VH: B1 VH with L60S
# VL: B1 VL
# notes: as for B1
# B7: 320-577 (antibody, human IgG1, name in Kabat numbering, V domains shown)
# VH: B1 VH with L51A, L60Y
# VL: B1 VL
# notes: as for B1
# B8: 320-559 (antibody, human IgG1, name in Kabat numbering, V domains shown)
# VH: B1 VH with G59Q, L60Y
# VL: B1 VL
# notes: as for B1
# B9: 320-566 (antibody, human IgG1, name in Kabat numbering, V domains shown)
# VH: B1 VH with L60A
# VL: B1 VL
# notes: as for B1
# B10: 320-575 (antibody, human IgG1, name in Kabat numbering, V domains shown)
# VH: B1 VH with L60Y, A61H
# VL: B1 VL
# notes: as for B1
# B11: 320-582 (antibody, human IgG1, name in Kabat numbering, V domains shown)
# VH: B1 VH with L60W
# VL: B1 VL
# notes: as for B1
# B12: 320-557 (antibody, human IgG1, name in Kabat numbering, V domains shown)
# VH: B1 VH with G59A, L60Y
# VL: B1 VL
# notes: as for B1
# B13: 320-561 (antibody, human IgG1, name in Kabat numbering, V domains shown)
# VH: B1 VH with G59H, L60Y
# VL: B1 VL
# notes: as for B1
# B14: 320-568 (antibody, human IgG1, name in Kabat numbering, V domains shown)
# VH: B1 VH with L60Q
# VL: B1 VL
# notes: as for B1
# B15: 320-574 (antibody, human IgG1, name in Kabat numbering, V domains shown)
# VH: B1 VH with L60Y, A61D
# VL: B1 VL
# notes: as for B1
# B16: 320-564 (antibody, human IgG1, name in Kabat numbering, V domains shown)
# VH: B1 VH with G59W, L60Y
# VL: B1 VL
# notes: as for B1
# B17: 320-573 (antibody, human IgG1, name in Kabat numbering, V domains shown)
# VH: B1 VH with L60Y, A61Q
# VL: B1 VL
# notes: as for B1
# B18: 320-579 (antibody, human IgG1, name in Kabat numbering, V domains shown)
# VH: B1 VH with N52L, L60Y
# VL: B1 VL
# notes: as for B1
# B19: 320-576 (antibody, human IgG1, name in Kabat numbering, V domains shown)
# VH: B1 VH with L60Y, A61K
# VL: B1 VL
# notes: as for B1
# B20: 320-570 (antibody, human IgG1, name in Kabat numbering, V domains shown)
# VH: B1 VH with L60H
# VL: B1 VL
# notes: as for B1
# B21: 320-556 (antibody, human IgG1, name in Kabat numbering, V domains shown)
# VH: B1 VH with T58Y, L60Y
# VL: B1 VL
# notes: as for B1
# B22: 320-571 (antibody, human IgG1, name in Kabat numbering, V domains shown)
# VH: B1 VH with L60K
# VL: B1 VL
# notes: as for B1
# B23: 320-569 (antibody, human IgG1, name in Kabat numbering, V domains shown)
# VH: B1 VH with L60D
# VL: B1 VL
# notes: as for B1
# B24: 320-560 (antibody, human IgG1, name in Kabat numbering, V domains shown)
# VH: B1 VH with G59D, L60Y
# VL: B1 VL
# notes: as for B1
# B25: 320-192 (antibody, human IgG1, name in Kabat numbering, V domains shown)
# VH: B1 VH with L60Y
# VL: B1 VL with T23A
# notes: human IgG1, lambda
# B26: 320-208 (antibody, human IgG1, name in Kabat numbering, V domains shown)
# VH: B1 VH with L60Y
# VL: B1 VL with S24Y
# notes: human IgG1, lambda
# B27: 320-206 (antibody, human IgG1, name in Kabat numbering, V domains shown)
# VH: B1 VH with L60Y
# VL: B1 VL with S24L
# notes: human IgG1, lambda
# B28: 320-200 (antibody, human IgG1, name in Kabat numbering, V domains shown)
# VH: B1 VH with L60Y
# VL: B1 VL with T23Y
# notes: human IgG1, lambda
# B29: 320-196 (antibody, human IgG1, name in Kabat numbering, V domains shown)
# VH: B1 VH with L60Y
# VL: B1 VL with T23H
# notes: human IgG1, lambda
# B30: 320-210 (antibody, human IgG1, name in Kabat numbering, V domains shown)
# VH: B1 VH with L60Y
# VL: B1 VL with S25Q
# notes: human IgG1, lambda
# B31: 320-195 (antibody, human IgG1, name in Kabat numbering, V domains shown)
# VH: B1 VH with L60Y
# VL: B1 VL with T23D
# notes: human IgG1, lambda
# B32: 320-204 (antibody, human IgG1, name in Kabat numbering, V domains shown)
# VH: B1 VH with L60Y
# VL: B1 VL with S24H
# notes: human IgG1, lambda
# B33: 320-212 (antibody, human IgG1, name in Kabat numbering, V domains shown)
# VH: B1 VH with L60Y
# VL: B1 VL with S25H
# notes: human IgG1, lambda
# Molecular target: T1, human TL1A extracellular domain with …
# Experiment: SPR Run 7, antibody on Protein A, TL1A 5 ug/mL, timepoint 44
# Procedure, shortened: (§1)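 Biacore T200 SPR with antibody (supernatant or Protein A-purified) captured on Protein A amine-coupled to a CM5 chip; capture level recorded as response change at end of capture.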
row,TL1A Binding Level (Early) [RU],Binder
1,70,B1
2,51,B2
3,83,B3
4,98,B4
5,43,B5
6,96,B6
7,98,B7
8,9,B8
9,120,B9
10,121,B10
11,67,B11
12,26,B12
13,14,B13
14,115,B14
15,140,B15
16,72,B16
17,67,B17
18,46,B18
19,90,B19
20,79,B20
21,100,B21
22,78,B22
23,79,B23
24,36,B24

# Molecular target: T1, human TL1A extracellular domain with …
# Experiment: SPR Run 7, antibody on Protein A, TL1A 5 ug/mL, timepoint 220
# Procedure, shortened: as §1
row,TL1A Binding Level (Late) [RU],Binder
1,65,B1
2,47,B2
3,77,B3
4,90,B4
5,12,B5
6,86,B6
7,90,B7
8,5,B8
9,110,B9
10,110,B10
11,52,B11
12,6,B12
13,6,B13
14,107,B14
15,130,B15
16,67,B16
17,62,B17
18,41,B18
19,83,B19
20,72,B20
21,90,B21
22,72,B22
23,73,B23
24,9,B24

# Molecular target: T2, human TL1A extracellular domain with …
# Experiment: SPR run 2; supernatant on Protein A; TL1A 10 ug/mL; timepoint 220
# Text: (§2) 1.5. Antibody expression and antigen binding as determined by SPR. Using a CM5 sensor chip (GE Healthcare) Protein A (Pierce) was coupled to the chip surface using an amine coupling kit (GE Healthcare). Protein A was coupled on flow cell 1 and 2 (or alternatively 3 and 4) using a BIACORE® T200. […] The amount of supernatant or purified protein (as well as the concentration) injected during the capture stage varied between runs and is specified in the header of the Tables 3-11. At the end of injection of the supernatant or purified antibody the change in response units was measured. This value was reported as Capture Level in Tables 3-11. […] The response units were measured prior to the end of the dissociation phase. […] The sensorgrams were double referenced (flow cell 2 is subtracted from flow cell 1 and a buffer blank). As there were a large number of antibody variants to screen, these were screened across different runs (Tables 3-11). […] A summary of the conditions used in each run is below:
# (§3) 2.1. […] In some experiment the antibodies were purified using Protein A chromatography (See 1.4) and purified antibodies were used in BIACORE® (GE Healthcare) experiments.
row,TL1A Binding Level (Late) [RU],Binder
1,218,B25
2,199,B26
3,235,B27
4,231,B28
5,228,B29
6,202,B30
7,227,B31
8,155,B32
9,205,B33

# Molecular target: T2, human TL1A extracellular domain with …
# Experiment: SPR run 2; supernatant on Protein A; TL1A 10 ug/mL; timepoint 44
# Text: as §2, §3
row,TL1A Binding Level (Early) [RU],Binder
1,238,B25
2,222,B26
3,257,B27
4,251,B28
5,250,B29
6,225,B30
7,249,B31
8,193,B32
9,226,B33
